Data on one substance can be found in article PMC11532467.

For the test, the target named is Glycylhalorhodopsin from Salinarimonas soli (SsGHR) (Salinarimonas soli). The test is described as follows: crystal structure.

Broadly, the stoichiometry N is a count of units in the complex or per binding partner.

Regarding “Glycylhalorhodopsin from Salinarimonas soli (SsGHR) (natural protein)”, the stoichiometry N was determined as 3.
